From patent publication US20250002610A1 (Genmab, published 2025)

Columns and labels:
[1] = target: T1, FcγRIIa-H131 (CD32A Protein, Human, Recombinant (167 His, His Tag)) (human, UniProt P12318 34-218, limits assumed); experiment: SPR (Biacore 8K), His-tagged FcγRIIa-H131 captured on an anti-His chip, antibody as analyte, endpoint response against concentration
T1 construct: Bought reagent; not shown: His tag
T1 sequence (looked up): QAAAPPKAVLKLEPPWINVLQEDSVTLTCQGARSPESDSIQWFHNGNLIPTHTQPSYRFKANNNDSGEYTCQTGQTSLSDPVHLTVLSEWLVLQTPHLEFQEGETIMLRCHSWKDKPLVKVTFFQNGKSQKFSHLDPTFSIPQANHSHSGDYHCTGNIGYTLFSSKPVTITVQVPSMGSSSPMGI
Description: (§1) Binding of BisG1-FAPα-FERL/DR4-FERR to immobilized human His-tagged FcγRs and FcRn was analyzed by SPR using a Biacore 8K SPR system (Cytiva). To this end, anti-His antibodies were covalently immobilized on the surface of Biacore Series S Sensor Chip CM5 (Cytiva, Cat. #29104988) using the Amine Coupling Kit (Cytiva, Cat. #BR100050) and a His Capture Kit (Cytiva, Cat. #29234602) according to the manufacturer's instructions. To assess antibody binding to immobilized human FcγRs, aliquots of the recombinant His-tagged FcγR proteins (Table 24) were diluted in HBS EP+Buffer pH 7.4 (Cytiva, Cat. #BR100669) and used to capture the FcγR proteins on the surface of the anti-His antibody-coated sensors using a flow rate of 10 μL/min and a contact time of 60 s. Captured levels ranged from 434 to 592 RU. After three start-up cycles of HBS-EP+Buffer, concentration ranges of BisG1-FAPα-FERL/DR4-FERR or IgG1-b12 antibodies (Table 25) were injected to generate binding curves on FcγR-captured sensors (active surface). For each antibody sample, a parallel flow cell without captured FcγRs was included (reference surface), which was used for RU background correction.
(§2) All sensorgrams were subtracted by the signal of the third start-up cycle with buffer only (mock analyte). […]

[2] = target: T2, FcγRIIIa-F158 (CD16a Protein, Human, Recombinant (ECD, 176 Phe, His & AVI Tag)) (human, UniProt P08637 17-208); experiment: SPR (Biacore 8K), His-tagged FcγRIIIa-F158 captured on an anti-His chip, antibody as analyte, endpoint response against concentration
T2 construct: extracellular domain; Bought reagent; not shown: His & AVI tag
T2 sequence (P08637 17-208): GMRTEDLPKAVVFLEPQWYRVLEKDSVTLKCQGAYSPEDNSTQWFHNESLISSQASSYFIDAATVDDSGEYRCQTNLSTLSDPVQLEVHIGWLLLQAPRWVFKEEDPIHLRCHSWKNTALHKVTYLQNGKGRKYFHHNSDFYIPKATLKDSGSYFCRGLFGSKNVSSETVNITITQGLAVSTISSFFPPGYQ
Description: as §1, §2

B1: IgG1-b12 (antibody)
heavy: not shown
light: EIVLTQSPGTLSLSPGERATFSCRSSHSIRSRRVAWYQHKPGQAPRLVIHGVSNRASGISDRFSGSGSGTDFTLTITRVEPEDFALYYCQVYGASSYTFGQGTKLERKRTVAAPSVFIFPPSDEQLKSGTASVVCLLNNFYPREAKVQWKVDNALQSGNSQESVTEQDSKDSTYSLSSTLTLSKADYEKHKVYACEVTHQGLSSPVTKSFNRGEC
notes: HIV gp120 antibody b12 with wild-type IgG1 Fc; also called IgG-b12
B1: binds [1]; binds [2].
